For 30 molecules, binding signal results are on record in PMC11417369, “DNA sequence and chromatin differentiate sequence-specific transcription factor binding in the human malaria parasite Plasmodium falciparum”.

Sequences and labels used below:
T1: AP2-G D1 (Plasmodium falciparum, UniProt Q8I5I9 2123-2245)
T1 sequence: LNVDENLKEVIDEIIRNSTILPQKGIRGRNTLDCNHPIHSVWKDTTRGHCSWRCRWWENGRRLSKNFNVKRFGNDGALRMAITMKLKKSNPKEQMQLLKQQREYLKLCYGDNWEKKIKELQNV

B1: XGTACX_site2105 (dsDNA)
DNA 1: ATTAATTATTGTAATTGTACATTTTATATATATCCA
DNA 2: TGGATATATATAAAATGTACAATTACAATAATTAAT
B2: XGTACX_site8765 (dsDNA)
DNA 1: TTCCCTCCTCAAAATTGTACTAGAATAATAACATAA
DNA 2: TTATGTTATTATTCTAGTACAATTTTGAGGAGGGAA
B3: XGTACX_site5309 (dsDNA)
DNA 1: CTATACAATAAAAATTGTACATACATATATGTTATA
DNA 2: TATAACATATATGTATGTACAATTTTTATTGTATAG
B4: XGTACX_site4926 (dsDNA)
DNA 1: ATCAACATTATGGTTAGTACTTAGTGAATTGTTAAT
DNA 2: ATTAACAATTCACTAAGTACTAACCATAATGTTGAT
B5: XGTACX_site1104 (dsDNA)
DNA 1: ACCATATAATTTTTTTGTACATAATGATTTTTTTTT
DNA 2: AAAAAAAAATCATTATGTACAAAAAAATTATATGGT
B6: XGTACX_site4444 (dsDNA)
DNA 1: ATATAATATTGAGTTTGTACATATATATATGAAGAT
DNA 2: ATCTTCATATATATATGTACAAACTCAATATTATAT
B7: XGTACX_site84 (dsDNA)
DNA 1: AATTAAATGGATAAATGTACATATGTGAATATATTT
DNA 2: AAATATATTCACATATGTACATTTATCCATTTAATT
B8: XGTACX_site1874 (dsDNA)
DNA 1: GGTATAAAGAAATTTTGTACATATTTCTCCCTTTAA
DNA 2: TTAAAGGGAGAAATATGTACAAAATTTCTTTATACC
B9: XGTACX_site8705 (dsDNA)
DNA 1: ACTAAAGTGTATCACTGTACAATTCTTCTCTTTTTT
DNA 2: AAAAAAGAGAAGAATTGTACAGTGATACACTTTAGT
B10: XGTACX_site1414 (dsDNA)
DNA 1: CTATAATATTATAACAGTACATAATATTATATATAT
DNA 2: ATATATATAATATTATGTACTGTTATAATATTATAG
B11: XGTACX_site5674 (dsDNA)
DNA 1: TATCTAGTTACTCCTTGTACATAATAAATGATTTTT
DNA 2: AAAAATCATTTATTATGTACAAGGAGTAACTAGATA
B12: XGTACX_site3854 (dsDNA)
DNA 1: AACCATTCTTCTAATTGTACATTGAAAAATCATGAT
DNA 2: ATCATGATTTTTCAATGTACAATTAGAAGAATGGTT
B13: XGTACX_site5487 (dsDNA)
DNA 1: ACAAGTTTAACATTTCGTACTTATTGTGTTTTTTTT
DNA 2: AAAAAAAACACAATAAGTACGAAATGTTAAACTTGT
B14: XGTACX_site972 (dsDNA)
DNA 1: GAAACAAAATTATTTTGTACATATGACTGTAGATAT
DNA 2: ATATCTACAGTCATATGTACAAAATAATTTTGTTTC
B15: XGTACX_site841 (dsDNA)
DNA 1: TATATATATAATATATGTACTGATATGCTATTTACT
DNA 2: AGTAAATAGCATATCAGTACATATATTATATATATA
B16: XGTACX_site1856 (dsDNA)
DNA 1: ATAAATTATAATAACTGTACAAAAATAATATATTCA
DNA 2: TGAATATATTATTTTTGTACAGTTATTATAATTTAT
B17: XGTACX_site8642 (dsDNA)
DNA 1: CAAAGCATAGTATGATGTACAAATGTTCCTATAATA
DNA 2: TATTATAGGAACATTTGTACATCATACTATGCTTTG
B18: XGTACX_site4821 (dsDNA)
DNA 1: AATAAAACATCATCATGTACAAAATTCGTCTTTGTA
DNA 2: TACAAAGACGAATTTTGTACATGATGATGTTTTATT
B19: XGTACX_site5139 (dsDNA)
DNA 1: TATATACAGAATATATGTACATATTCATTTTATATT
DNA 2: AATATAAAATGAATATGTACATATATTCTGTATATA
B20: XGTACX_site3331 (dsDNA)
DNA 1: AAAAATTTTTTACATCGTACAGATATATATAATAAA
DNA 2: TTTATTATATATATCTGTACGATGTAAAAAATTTTT
B21: XGTACX_site8657 (dsDNA)
DNA 1: ATTAAGATGTATATATGTACATATTACATACATATA
DNA 2: TATATGTATGTAATATGTACATATATACATCTTAAT
B22: XGTACX_site2945 (dsDNA)
DNA 1: AAGCATAAAGTATATAGTACATATATATATATATAT
DNA 2: ATATATATATATATATGTACTATATACTTTATGCTT
B23: XGTACX_site150 (dsDNA)
DNA 1: ATATACATATATATATGTACTGAAAAGAAAAGAATT
DNA 2: AATTCTTTTCTTTTCAGTACATATATATATGTATAT
B24: XGTACX_site287 (dsDNA)
DNA 1: AACAAAGAAAATACATGTACAAAAAATATTAACGAA
DNA 2: TTCGTTAATATTTTTTGTACATGTATTTTCTTTGTT
B25: XGTACX_site3550 (dsDNA)
DNA 1: AATATTAAAGAATAATGTACAAAATAAAAGCAAAGA
DNA 2: TCTTTGCTTTTATTTTGTACATTATTCTTTAATATT
B26: XGTACX_site4853 (dsDNA)
DNA 1: TTTGACACAATATTTTGTACGAAACTATTAATTCAA
DNA 2: TTGAATTAATAGTTTCGTACAAAATATTGTGTCAAA
B27: XGTACX_site4930 (dsDNA)
DNA 1: TGGAGGATAGTTCACAGTACCCAGTAACTCTACGGA
DNA 2: TCCGTAGAGTTACTGGGTACTGTGAACTATCCTCCA
B28: XGTACX_site2156 (dsDNA)
DNA 1: AATATATATATATATAGTACATATTTTTATTCATTA
DNA 2: TAATGAATAAAAATATGTACTATATATATATATATT
B29: XGTACX_site5737 (dsDNA)
DNA 1: TAATGGAATACATATAGTACATAATATTACATACAT
DNA 2: ATGTATGTAATATTATGTACTATATGTATTCCATTA
B30: XGTACX_site7465 (dsDNA)
DNA 1: TTTAATTCTTATATTTGTACAGATTCATAATTAAAT
DNA 2: ATTTAATTATGAATCTGTACAAATATAAGAATTAAA

For the data set, the target named is T1, AP2-G D1. In words: gcPBM; about 25 ug protein; PBS, 1% milk, 0.2 mg/ml BSA, salmon testes DNA, 0.03% Triton X-100. Particulars: tags: N-terminal GST (pGEX-4T-1), kept; label: surface-attached array probe.
Regarding B1, the binding signal is 11.1 ln median PBM intensity, better of two orientations.
As for B2, the binding signal was 11 ln median PBM intensity, better of two orientations.
On to B3, for which the binding signal is 11.3 ln median PBM intensity, better of two orientations.
Regarding B4, the binding signal is 11 ln median PBM intensity, better of two orientations.
Turning to B5, the binding signal is 11.1 ln median PBM intensity, better of two orientations.
Turning to B6, the binding signal was 11.1 ln median PBM intensity, better of two orientations.
Regarding B7, the binding signal is 11.4 ln median PBM intensity, better of two orientations.
Consider B8, for which the binding signal is 11.1 ln median PBM intensity, better of two orientations.
In the case of B9, the binding signal is 10.9 ln median PBM intensity, better of two orientations.
The value for B10 was 10.8 ln median PBM intensity, better of two orientations.
As for B11, the binding signal was 11 ln median PBM intensity, better of two orientations.
Take B12: the binding signal was 11.1 ln median PBM intensity, better of two orientations.
The result for B13 reads 10.9 ln median PBM intensity, better of two orientations; that for B14, 11.2 ln median PBM intensity, better of two orientations; that for B15, 11 ln median PBM intensity, better of two orientations.
For the molecule B16, the binding signal was 11.1 ln median PBM intensity, better of two orientations.
The result for B17 reads 11 ln median PBM intensity, better of two orientations; that for B18, 10.6 ln median PBM intensity, better of two orientations.
The value for B19 was 11.4 ln median PBM intensity, better of two orientations; that for B20 was 11.2 ln median PBM intensity, better of two orientations.
Take B21: the binding signal is 11.4 ln median PBM intensity, better of two orientations.
In the case of B22, the binding signal was 11.3 ln median PBM intensity, better of two orientations.
Regarding B23, the binding signal was 11.4 ln median PBM intensity, better of two orientations.
Regarding B24, the binding signal was 11.2 ln median PBM intensity, better of two orientations.
With B25, the binding signal was 10.9 ln median PBM intensity, better of two orientations.
For the molecule B26, the binding signal was 11 ln median PBM intensity, better of two orientations.
B27: the binding signal is 10.9 ln median PBM intensity, better of two orientations.
For B28, the binding signal is 11.1 ln median PBM intensity, better of two orientations.
For the molecule B29, the binding signal was 11.3 ln median PBM intensity, better of two orientations.
With B30, the binding signal was 11.2 ln median PBM intensity, better of two orientations.
